B1: GV(M)M: EcR chimera: GAL4 DBD, internal VP16, Manduca D and E domains; SEQ ID NO:147-148 (protein)
chain: MQQLYVDFFSPAFIRYLFAWYCFFCRCSPCCLVLLLQGSATMKLLSSIEQACDICRLKKLKCSKEKPKCAKCLKNNWECRYSPKTKRSPLTRAHLTEVESRLERLEQLFLLIFPREDLDMILKMDSLQDIKALLTGLFVQDNVNKDAVTDRLASVETDMPLTLRQHRISATSSSEESSNKGQRQLTVSTRMRPECVVPESTCKLAPPTDVSLGDELHLDGEDVAMAHADALDDFDLDMLGDGDSPGPGFTPHDSAPYGALDMADFEFEQMFTDALGIDEYGGNTCKNKRREKEAQREKDKLPVSTTTVDDHMPAIMQCDPPPPEAARIHEVVPRFLTEKLMEQNRLKNVTPLSANQKSLIARLVWYQEGYEQPSEEDLKRVTQTWQLEEEEEEETDMPFRQITEMTILTVQLIVEFAKGLPGFSKISQSDQITLLKASSSEVMMLRVARRYDAATDSVLFANNQAYTRDNYRKAGMSYVIEDLLHFCRCMYSMSMDNVHYALLTAIVIFSDRPGLEQPLLVEEIQRYYLKTLRVYILNQHSASPRCAVLFGKILGVLTELRTLGTQNSNMCISLKLKNRKLPPFLEEIWDVAEVSTTKL
B2: G(E)MV: EcR chimera: GAL4 DBD, European corn borer D domain, Manduca sexta E domain, VP16; SEQ ID NO:126-127 (protein)
chain: MQQLYVDFFSPAFIRYLFAWYCFFCRCSPCCLVLLLQGSATMKLLSSIEQACDICRLKKLKCSKEKPKCAKCLKNNWECRYSPKTKRSPLTRAHLTEVESRLERLEQLFLLIFPREDLDMILKMDSLQDIKALLTGLFVQDNVNKDAVTDRLASVETDMPLTLRQHRISATSSSEESSNKGQRQLTVSTRMRPECVVPETQCAQKRKEKKAQREKDKLPVSTTTVDDHMPPIMQCDPPPPEAARILECLQHEVVPRFLSEKLMEQNRLKNIPPLTANQQFLIARLVWYQEGYEQPSEEDLKRVTQTWQLEEEEEEETDMPFRQITEMTILTVQLIVEFAKGLPGFSKISQSDQITLLKASSSEVMMLRVARRYDAATDSVLFANNQAYTRDNYRKAGMSYVIEDLLHFCRCMYSMSMDNVHYALLTAIVIFSDRPGLEQPLLVEEIQRYYLKTLRVYILNQHSASPRCAVLFGKILGVLTELRTLGTQNSNMCISLKLKNRKLPPFLEEIWDVAEVSTTKLAPPTDVSLGDELHLDGEDVAMAHADALDDFDLDMLGDGDSPGPGFTPHDSAPYGALDMADFEFEQMFTDALGIDEYGG
B3: VG(M)M: EcR chimera: N-terminal VP16, GAL4 DBD, Manduca D and E domains; SEQ ID NO:142-143 (protein)
chain: MQQLYVDFFSPAFIRYLFAWYCFFCRCSPCCLVLLLQGSATMHVKLAPPTDVSLGDELHLDGEDVAMAHADALDDFDLDMLGDGDSPGPGFTPHDSAPYGALDMADFEFEQMFTDALGIDEYGGHVTSKLLSSIEQACDICRLKKLKCSKEKPKCAKCLKNNWECRYSPKTKRSPLTRAHLTEVESRLERLEQLFLLIFPREDLDMILKMDSLQDIKALLTGLFVQDNVNKDAVTDRLASVETDMPLTLRQHRISATSSSEESSNKGQRQLTVSTRMRPECVVPESTCKNKRREKEAQREKDKLPVSTTTVDDHMPAIMQCDPPPPEAARIHEVVPRFLTEKLMEQNRLKNVTPLSANQKSLIARLVWYQEGYEQPSEEDLKRVTQTWQLEEEEEEETDMPFRQITEMTILTVQLIVEFAKGLPGFSKISQSDQITLLKASSSEVMMLRVARRYDAATDSVLFANNQAYTRDNYRKAGMSYVIEDLLHFCRCMYSMSMDNVHYALLTAIVIFSDRPGLEQPLLVEEIQRYYLKTLRVYILNQHSASPRCAVLFGKILGVLTELRTLGTQNSNMCISLKLKNRKLPPFLEEIWDVAEVSTTKL
B4: G(M)MC: EcR chimera: GAL4 DBD, Manduca sexta D and E domains, maize C1 activation domain; SEQ ID NO:134-135 (protein)
chain: MQQLYVDFFSPAFIRYLFAWYCFFCRCSPCCLVLLLQGSATMKLLSSIEQACDICRLKKLKCSKEKPKCAKCLKNNWECRYSPKTKRSPLTRAHLTEVESRLERLEQLFLLIFPREDLDMILKMDSLQDIKALLTGLFVQDNVNKDAVTDRLASVETDMPLTLRQHRISATSSSEESSNKGQRQLTVSTRMRPECVVPESTCKNKRREKEAQREKDKLPVSTTTVDDHMPAIMQCDPPPPEAARIHEVVPRFLTEKLMEQNRLKNVTPLSANQKSLIARLVWYQEGYEQPSEEDLKRVTQTWQLEEEEEEETDMPFRQITEMTILTVQLIVEFAKGLPGFSKISQSDQITLLKASSSEVMMLRVARRYDAATDSVLFANNQAYTRDNYRKAGMSYVIEDLLHFCRCMYSMSMDNVHYALLTAIVIFSDRPGLEQPLLVEEIQRYYLKTLRVYILNQHSASPRCAVLFGKILGVLTELRTLGTQNSNMCISLKLKNRKLPPFLEEIWDVAEVSTTKLPKAVRCTGGLFFFHRDTTPAHAGETATPMAGGGGGGGGEAGSSDDCSSAASVSLRVGSHDEPCFSGDGDGDWMDDVRALASFLESDEDWLRCQTAGQLA
B5: G(E)EV: EcR chimera: GAL4 DBD, European corn borer D and E domains, VP16; SEQ ID NO:124-125 (protein)
chain: MQQLYVDFFSPAFIRYLFAWYCFFCRCSPCCLVLLLQGSATMKLLSSIEQACDICRLKKLKCSKEKPKCAKCLKNNWECRYSPKTKRSPLTRAHLTEVESRLERLEQLFLLIFPREDLDMILKMDSLQDIKALLTGLFVQDNVNKDAVTDRLASVETDMPLTLRQHRISATSSSEESSNKGQRQLTVSTRMRPECVVPETQCAQKRKEKKAQREKDKLPVSTTTVDDHMPPIMQCDPPPPEAARILECLQHEVVPRFLSEKLMEQNRLKNIPPLTANQQFLIARLVWYQDGYEQPSEEDLKRVTQTWQSADEEDEDSDMPFRQITEMTILTVQLIVEFAKGLPGFSKISQPDQITLLKACSSEVMMLRVARRYDAVSDSVLFANNQAYTRDNYRKAGMAYVIEDLLHFCRCMYSMSMDNVHYALLTAIVIFSDRPGLEQPQLVEEIQRYYLNTLRVYIMNQHSASPRCAVIYAKILSVLTELRTLGMQNSNMCISLKLKNRKLPPFLEEIWDVKLAPPTDVSLGDELHLDGEDVAMAHADALDDFDLDMLGDGDSPGPGFTPHDSAPYGALDMADFEFEQMFTDALGIDEYGG
B6: G(M)MD: EcR chimera: GAL4 DBD, Manduca sexta D and E domains, maize Dof1 activation domain; SEQ ID NO:136-137 (protein)
chain: MQQLYVDFFSPAFIRYLFAWYCFFCRCSPCCLVLLLQGSATMKLLSSIEQACDICRLKKLKCSKEKPKCAKCLKNNWECRYSPKTKRSPLTRAHLTEVESRLERLEQLFLLIFPREDLDMILKMDSLQDIKALLTGLFVQDNVNKDAVTDRLASVETDMPLTLRQHRISATSSSEESSNKGQRQLTVSTRMRPECVVPESTCKNKRREKEAQREKDKLPVSTTTVDDHMPAIMQCDPPPPEAARIHEVVPRFLTEKLMEQNRLKNVTPLSANQKSLIARLVWYQEGYEQPSEEDLKRVTQTWQLEEEEEEETDMPFRQITEMTILTVQLIVEFAKGLPGFSKISQSDQITLLKASSSEVMMLRVARRYDAATDSVLFANNQAYTRDNYRKAGMSYVIEDLLHFCRCMYSMSMDNVHYALLTAIVIFSDRPGLEQPLLVEEIQRYYLKTLRVYILNQHSASPRCAVLFGKILGVLTELRTLGTQNSNMCISLKLKNRKLPPFLEEIWDVAEVSTTKLELATAADPGKTATTTTTTTSEITTETGALEDSDSLAHLLLQPGTEDAEAVALGLGLSDFPSAGKAVLDDEDSFVWPAASFDMGACWAGAGFADPDPACIFLNLP

Test system: pCGS206 (luciferase reporter with response elements for the GAL4 DNA binding domain)
Assay: Maize BMS cells bombarded with GAL4 luciferase reporter and receptor vector, GUS-normalized luciferase
Assay type: cell-based
Settings: for Experiment #1 RLU / Experiment #2 RLU: Example 28, GUS-normalized; for Fold Induction with Teb Relative to Receptor with EtOH / Fold Induction with Teb Relative to Reporter with EtOH: 20 μM Teb; for Normalized Average (EtOH): unliganded background; for Experiment #1 Luciferase / Experiment #2 Luciferase / Experiment #1 Fold Induction / Experiment #2 Fold Induction: Example 26; for Experiment #1 Fold Induction / Experiment #2 Fold Induction: + 10 μM Teb vs without
Procedure: (§1) Maize BMS (Black Mexican Sweet) cultured cells are transfected with pCGS206 and pCGS208 by high velocity microprojectile bombardment. In addition, an expression plasmid containing the maize ubiquitin promoter driving the expression of β-glucuronidase (GUS) is added to the transfection to serve as an internal control to normalize against variations among the samples.
(§2) Transfections are treated and cell lysates are made essentially as described in U.S. Pat. No. 5,880,333. […] Both luciferase and GUS assays are performed with 20 μl of cell lysate for each assay using the Promega Luciferase Kit (Promega cat #E1500) and GUS-Light Kit (Tropix) respectively. Relative light units are determined using a Turner Designs TD 20/20 luminometer.
In addition to tebufenozide, methoxytebufenozide (“MethoxyTeb”) is also capable of inducing gene expression in maize BMS cells. Both pCGS206 and pCGS208 are transfected as described above and methoxytebufenozide is added in place of tebufenozide at 25 μM and 10 μM.
Maize BMS cells are transfected and assayed as in Example 12.
as §1, with “Transformation of maize suspension cells, chemical treatment, and reporter activity assays are performed as described in Example 12. Maize” for “Maize”, “pCGS206 (pBS-bz1TATA/intronLUC), pCGS203 (G(M)MV), pCGS672 (G(M)MC),” for “pCGS206”, “pCGS678 (G(M)MD)” for “pCGS208”
as §2, with “Maize BMS cells are bombarded with reporter vector pCGS206 and chimeric receptors and treated with tebufenozide essentially as described in Example 12. Transfections” for “Transfections”, “units (RLU)” for “units”

[1] = BMS cells, reporter pCGS206, no ligand
[2] = Example 24, Experiment 1, BMS cells
[3] = Example 24, Experiment 2, BMS cells

Molecule | Experiment #1 RLU [1] | Experiment #2 RLU [1] | Fold Induction with Teb Relative to Receptor with EtOH (Example 24, Experiment 1) | Fold Induction with Teb Relative to Reporter with EtOH (Example 24, Experiment 1) | Normalized Average (EtOH) [2] | Fold Induction with Teb Relative to Receptor with EtOH (Example 24, Experiment 2) | Fold Induction with Teb Relative to Reporter with EtOH (Example 24, Experiment 2) | Normalized Average (EtOH) [3] | Experiment #1 Luciferase (+ 10 μM Teb) | Experiment #2 Luciferase (+ 10 μM Teb) | Experiment #1 Fold Induction | Experiment #2 Fold Induction | Experiment #1 Luciferase [1] | Experiment #2 Luciferase [1]
B1 | 1.71 RLU | 1.77 RLU | – | – | – | – | – | – | – | – | – | – | – | –
B2 | – | – | 34 fold | 135 fold | 14.499 | 16 fold | 95 fold | 2.537 | – | – | – | – | – | –
B3 | 2.21 RLU | 2.52 RLU | – | – | – | – | – | – | – | – | – | – | – | –
B4 | – | – | – | – | – | – | – | – | 53.20 | 28.05 | 26.0 fold | 17.8 fold | 2.05 | 1.58
B5 | – | – | 57 fold | 119 fold | 7.601 | 17 fold | 99 fold | 2.394 | – | – | – | – | – | –
B6 | – | – | – | – | – | – | – | – | 6.37 | 9.14 | 3.0 fold | 7.8 fold | 2.14 | 1.18

Reference: patent US6958236B2, “Control of gene expression in plants” (priority 2000, dated 2005)
